Test results: US20210371491A1, “CHIMERIC ANTIGEN RECEPTORS THAT BIND TO PROSTATE SPECIFIC MEMBRANE ANTIGEN” (Albert-Ludwigs-Universitaet Freiburg, priority 2018, published 2021)

Biological target: prostate specific membrane antigen (PSMA) (UniProt Q04609)
Experiment: cell-based or functional assay

Chain of prostate specific membrane antigen (PSMA) (Q04609 whole entry, form in doubt): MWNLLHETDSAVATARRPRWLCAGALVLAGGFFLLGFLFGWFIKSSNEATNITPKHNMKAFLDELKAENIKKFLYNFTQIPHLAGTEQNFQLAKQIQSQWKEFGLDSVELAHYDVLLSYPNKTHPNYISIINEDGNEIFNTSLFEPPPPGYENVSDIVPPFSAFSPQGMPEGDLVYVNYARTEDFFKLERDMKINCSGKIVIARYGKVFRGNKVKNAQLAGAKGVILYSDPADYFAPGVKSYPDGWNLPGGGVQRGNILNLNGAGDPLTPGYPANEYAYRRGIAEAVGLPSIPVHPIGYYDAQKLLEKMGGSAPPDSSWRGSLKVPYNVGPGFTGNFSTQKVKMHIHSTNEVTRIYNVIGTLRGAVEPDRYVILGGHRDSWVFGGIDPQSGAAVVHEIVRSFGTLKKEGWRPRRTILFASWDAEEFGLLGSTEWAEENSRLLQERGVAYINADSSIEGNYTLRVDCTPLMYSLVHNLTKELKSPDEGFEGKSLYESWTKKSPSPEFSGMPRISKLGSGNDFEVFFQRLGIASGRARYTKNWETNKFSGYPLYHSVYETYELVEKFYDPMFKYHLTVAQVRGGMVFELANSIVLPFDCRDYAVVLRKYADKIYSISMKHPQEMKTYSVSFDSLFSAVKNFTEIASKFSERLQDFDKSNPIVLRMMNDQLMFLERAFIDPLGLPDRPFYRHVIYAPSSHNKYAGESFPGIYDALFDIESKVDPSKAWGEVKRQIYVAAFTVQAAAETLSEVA

CAR28 (J591), anti-PSMA CAR with scFv derived from antibody J591
percentage of CD69-positive CAR Jurkat cells after 24 h stimulation with PSMA-positive tumor cells (C4-2, LNCaP), E:T 1:1: 70%
